For four molecules, Kd results are on record in article PMC8809517, “Cofactor-independent RNA editing by a synthetic S-type PPR protein”.

Holding throughout (assay): high-throughput RNA pulldown from lysate on Ni-NTA beads; HRP: 50 mM Tris pH 8, 150 mM NaCl, 1 mM beta-mercaptoethanol, 50 ug/ml BSA, 3 ug/ml yeast RNA, 0.5% heparin; ITC and FP: Tris pH 8, 200 mM KCl, 5% glycerol; MST: 50 mM Tris pH 8, 200 mM NaCl, 1 mM DTT, BSA, heparin, 0.05% Tween 20
Settings in all cases: tags: N-terminal His-eGFP

In data set [1] the target is T1, GFP-9S library array, motif 4 ND N98D;D124S (synthetic construct, N98D;D124S).
T1 chain: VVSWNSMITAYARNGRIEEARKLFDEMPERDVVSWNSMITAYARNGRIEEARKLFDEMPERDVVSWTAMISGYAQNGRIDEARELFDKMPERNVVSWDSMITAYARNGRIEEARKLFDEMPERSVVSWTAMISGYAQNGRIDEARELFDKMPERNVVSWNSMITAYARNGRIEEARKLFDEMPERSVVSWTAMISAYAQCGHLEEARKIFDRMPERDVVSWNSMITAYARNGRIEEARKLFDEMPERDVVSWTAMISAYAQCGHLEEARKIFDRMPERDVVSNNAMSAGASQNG

Data set [2] concerns the target T2, GFP-9S library array, motif 4 ND N98G;D124Y (synthetic construct, N98G;D124Y).
T2 chain: T1 chain with D98G, S124Y

In data set [3] the target is T3, GFP-9S library array, motif 4 ND N98F;D124R (synthetic construct, N98F;D124R).
T3 chain: T1 chain with D98F, S124R

Data set [4] concerns the target T4, GFP-9S library array, motif 4 ND N98Y;D124H (synthetic construct, N98Y;D124H).
T4 chain: T1 chain with D98Y, S124H

Data set [5] deals with T5, GFP-9S library array, motif 4 ND N98Y;D124K (synthetic construct, N98Y;D124K).
T5 chain: T1 chain with D98Y, S124K

Substitutions are numbered along the chain they refer to.

B1: Cy5-rpoA-G (ssRNA)
RNA: AUUAGACGUGA
For B1, the Kd is 260 nM in data set [1] (label: 5' Cy5); 280 nM in data set [2] (label: 5' Cy5); 107 nM in data set [3] (label: 5' Cy5); 46 nM in data set [4] (label: 5' Cy5); 97 nM in data set [5] (label: 5' Cy5).

B2: IR-rpoA-U (ssRNA)
RNA: AUUAUACGUGA
Take B2: the Kd came out at 470 nM in data set [1] (label: 5' IRDye 800CW); 574 nM in data set [2] (label: 5' IRDye 800CW); 176 nM in data set [3] (label: 5' IRDye 800CW); 169 nM in data set [4] (label: 5' IRDye 800CW); 227 nM in data set [5] (label: 5' IRDye 800CW).

B3: Cy5-rpoA (ssRNA)
RNA: AUUACACGUGA
For B3, the Kd in data set [1] (label: 5' Cy5) is 401 nM; in data set [2] (label: 5' Cy5), 272 nM; in data set [3] (label: 5' Cy5) it was 117 nM; in data set [4] (label: 5' Cy5) it was 5.06 nM; in data set [5] (label: 5' Cy5) it was 93.3 nM.

B4: IR-rpoA-A (ssRNA)
RNA: AUUAAACGUGA
B4: the Kd worked out at 759 nM in data set [1] (label: 5' IRDye 800CW); 548 nM in data set [2] (label: 5' IRDye 800CW); 85.1 nM in data set [3] (label: 5' IRDye 800CW); 111 nM in data set [4] (label: 5' IRDye 800CW); 207 nM in data set [5] (label: 5' IRDye 800CW).
